In assay [1] the test system is E. coli. Nature of the assay: Light scattering by growing bacteria in broth (O.D. 400 nm). The conditions noted are these: for Blocking of attenuation of light scattering by J5 LPS vesicles: 300 μg/ml J5 LPS vesicles, 100 μg/ml collectin.
Assay [2] relates to E. coli strain (E69). Nature of the assay: Growth inhibition (radius of clearing) of E. coli clinical isolate with or without OmpA. The class given is cell-based. The note with it: for Growth inhibition of ΔOmpA bacteria with plasmid driven OmpA expression: OmpA replaced; for Growth inhibition of OmpA deficient (ΔOmpA) E. coli: judged by the radius of clearing around the well. As for the experimental part:
SP-A has been reported to bind to the outer membrane protein (OmpA) of Hemophilus influenza, a porin that facilitates the uptake of nutrients from the environment. The hypothesis that binding of collectins to OmpA mediates bacterial growth inhibition by SP-A and SP-D was tested. These experiments were performed using a genetically engineered clinical isolate of E. coli that was rendered OmpA deficient (ΔOmpA) by transposon mutagenesis.

Assay [3] concerns LDL. Nature of the assay: Continuous spectrophotometric monitoring of conjugated diene formation during copper-induced LDL oxidation. The class given is biochemical, human. The note with it: for Effect of addition during the propagation phase of oxidation: 10 μg/ml SP-A at 95, 175 or 195 minutes, 1 μg/ml SP-D at 95, 125 or 155 minutes; for Effect on accumulation of conjugated dienes when included at zero time: SP-A 1.0-10 μg/ml, SP-D 0.01-1 μg/ml; for Concentration of complete inhibition of oxidation (conjugated diene formation): added at zero time, 10 μM copper, room temperature, absorbance 234 nm. How it is done: Stock solutions of 10 mM CuSO4 were freshly prepared daily. Reaction mixtures containing 1 mg/mi surfactant lipids or 150 μg/ml LDL were incubated with 10 μM CuSO4 for 24 hours or 4 hours, respectively, in the presence of putative oxidation inhibitors or controls at 37° C. in a shaking water bath in accordance with the method of Gelvan et al., Biochim. Biophys. Acta 1035(3):353-360 (1990). Control reactions which included LDL only, 10 μM CuSO4 or protein controls of bovine serum albumin (BSA), rat IgG, recombinant MBP, rat serum and human complement C1q were performed concurrently with experimental samples. Thiobarbituric acid-reactive substances (TBARS) were measured using a method adapted from Gelvan et al., Biochim. Biophys. Acta 1035(3):353-360 (1990). Samples and 0-10 μM […] standards were developed by addition of a solution composed of 0.375% thiobarbituric acid, 15% trichloroacetic acid, and 0.25N HCl at a volume ratio of 1:2, sample: developer. Following incubation at 95° C. for 30 minutes and centrifugation at 14,000 rpm for 15 minutes, an aliquot was read at 540 nm in a spectrophotometer. For continuous assessment of lipid oxidation, the accumulation of conjugated dienes during LDL oxidation was monitored spectrophotometrically in accordance with the method of Esterbauer et al., Free Rad. Med. Biol. 13, 341-390 (1992). Mixtures of 150 μg/ml LDL, 10 μM copper, and various amounts of surfactant proteins or control proteins were placed in quartz cuvettes and allowed to oxidize at room temperature over 335 minutes. Conjugated diene formation was assessed by measuring absorbance at 234 nm in a spectrophotometer.
The temporal relationship between the addition of SP-A or SP-D and the inhibition of LDL oxidation was determined spectrophotometrically by continuously monitoring conjugated diene accumulation associated with exposure to copper, in accordance with the method of Esterbauer et al., Free Rad. Med. Biol. 13:341-390 (1992). The assay is based on the oxidation dependent rearrangement of 1,4 pentadienyl double bonds of LDL lipids to 1,3-butadienyl double bonds, which absorb in the ultraviolet range. In the presence of 10 μM copper at room temperature, LDL particles resist oxidation for up to 100 minutes as endogenous antioxidants such as atocopherol are consumed. At that point, the rate of oxidation increases in proportion to the concentration of initiating radicals, reaching a plateau when all unsaturated fatty acids are consumed.
According to FIG. 2, conjugated diene formation during copper-induced LDL oxidation was monitored spectrophotometrically by measuring absorbance at 234 nm.

Assay [4] has as its system GBS. Kind of assay: Radial diffusion growth inhibition in agar. In kind it is cell-based. The note with it: radial diffusion (not shown). As for the experimental part:
(§1) A radial diffusion method was therefore used to examine the effect of the collectins and their individual structural domains on the growth of E. coli that were immobilized in agar (FIGS. 8,9). Wells were bored into plates containing agar impregnated with 2×10^6 E. coli/ml or GBS. Proteins to be tested were introduced into the wells and the plates were incubated overnight at 37° C.

The subject of assay [5] is E. coli K12. Nature of the assay: Radial diffusion growth inhibition in agar. The conditions noted are these: radial diffusion, overnight 37° C. The class given is cell-based. As for the experimental part: as §1
The test system of assay [6] is LDL. Kind of assay: Western (immunoblot) analysis of protein carbonyl derivatives formed during copper mediated LDL oxidation. In kind it is biochemical, human. The conditions noted are these: SP-A 10 μg/ml, SP-D 1 μg/ml; alkylated SP-A 50 μg/ml, alkylated SP-D 10 μg/ml. As for the experimental part:
Proteins were analyzed for carbonyl modification of amino acid side groups that occur during lipid oxidation, as described in Levine et al., Methods Enzymol. 186, 464-478 (1990). Briefly, proteins that were included in reactions mixtures with LDL and 10 μM copper were derivatized to 2,4-dinitrophenylhydrazones (DNP-hydrazones) by reaction with 2,4-dinitrophenylhydrazine (DNPH), size fractionated by 8-16% SDS-PAGE under reducing conditions and electrophorectically transferred to nitrocellulose membranes (Oxyblot, Intergen). The membrane was sequentially incubated with a rabbit anti-DNP IgG and a horseradish peroxidase-conjugated goat anti-rabbit IgG. Blots were developed by HRP-dependent oxidation of a chemiluminescent substrate, and visualized using autoradiography.
To determine if the surfactant proteins act as sinks for reactive lipid intermediates, covalent modification of SP-A and SP-D during LDL oxidation was assessed using a western analysis technique that detects carbonyl adducts (Levine et al., Methods Enzymol. 186: 464-78 (1990)). As depicted by FIG. 4, oxidative modification of proteins that occurred during copper induced LDL oxidation were determined by Western analysis using an antibody to DNP-derivatized carbonyl moieties. Reaction mixtures contained LDL only, LDL+Cu^2+, LDL+Cu^2++albumin+10 μg/ml SP-A, LDL+Cu^2++albumin+1 μg/ml SP-D, LDL+Cu^2++albumin, LDL+Cu^2++albumin+50 μg/ml iodoacetamide treated SP-A, LDL+Cu^2++albumin+10 μg/ml iodoacetamide treated SP-D, 50 μg/ml albumin+50 μg/ml iodoacetamide treated SP-A, albumin+10 μg/ml iodoacetamide treated SP-D.

Assay [7] relates to surfactant lipids. Nature of the assay: TBARS assay of copper-induced oxidation of surfactant lipids. The conditions noted are these: for I.C.50 (half maximal concentration) for inhibition of copper-induced oxidation of surfactant lipids / Concentration of complete inhibition / maximal protection of surfactant lipids: 10 μM Cu2+, 24 hr, TBARS; for I.C.50 (half maximal concentration) for inhibition of copper-induced oxidation of surfactant lipids: 37° C.; for Lipid peroxidation (LPO) produced by copper or iron: 24 hr incubation, 10 μM copper or iron; for TBARS Surfactant lipids Malondialdehyde: mean ± S.E.M., n=3; for IC50: assuming rat SP-A M.W.=600,000, rat SP-D M.W.=500,000, read-out: I.C.50 for inhibition of copper-induced oxidation of surfactant lipids. In kind it is biochemical.

For assay [8], the system named is model surfactant lipids. Kind of assay: AIBN-initiated lipid peroxidation of model surfactant lipids. In kind it is biochemical. The note with it: 3 hours incubation, with or without low concentrations of copper; preliminary data.
Where [9] appears, read: surfactant lipids, copper-induced.

“Also recorded” adds a separate entry of the source.

Turning to “SP-A: Native surfactant protein A isolated from the alveolar wash of silica-pretreated rats”, the “Blocking of attenuation of light scattering by J5 LPS vesicles” value in assay [1] is recorded as “completely”. In assay [2], the “Growth inhibition of ΔOmpA bacteria with plasmid driven OmpA expression” value was “attenuated growth inhibition”, the “Growth inhibition of ΔOmpA organism with empty vector control” value is given as “inhibited to the same extent as the ΔOmpA organism”, the “Growth inhibition of OmpA deficient (ΔOmpA) E. coli” value is recorded as “growth inhibition was increased” and the “Growth of parental E. coli strain (E69)” value was “inhibited the growth”. In assay [3], the “Effect of addition during the propagation phase of oxidation” value is listed as “arrested lipid oxidation almost immediately; also recorded: conjugated diene formation was completely arrested at the point of addition”, the “Effect on accumulation of conjugated dienes when included at zero time” value is given as “blocked the accumulation of conjugated dienes in a dose-dependent manner” and the “Concentration of complete inhibition of oxidation (conjugated diene formation)” value came out at 10 µg/mL. Moreover, the “Growth of GBS” value in assay [4] is “not GBS”. In addition, the “Growth of E. coli K12” value in assay [5] is “inhibited the growth”. Moreover, the “LDL oxidation in carbonyl Western analysis” value in assay [6] was “blocked LDL oxidation without the appearance of carbonyl-modified species”. For the same molecule, in assay [7], the “I.C.50 (half maximal concentration) for inhibition of copper-induced oxidation of surfactant lipids” value amounted to 5.07 µg/mL, the “Concentration of complete inhibition / maximal protection of surfactant lipids” value came to 10 µg/mL, the “Lipid peroxidation (LPO) produced by copper or iron” value is “block lipid peroxidation” and the IC50 was found to be 8.4 nM. In addition, in assay [7] (Lipid + Cu2+ + 10 μg/ml protein), the “TBARS Surfactant lipids Malondialdehyde” value stood at 0.23 ± 0.01 µM. Further, in assay [7] (setting [9]), the “Effect of alkylation with iodoacetamide on the antioxidant effects” value is “completely blocked the antioxidant effects” and the “Effect of presaturation with 70 uM copper or addition of 2 mM Ca2+ on antioxidant activity” value is given as “neither the presaturation of SP-A with 70 uM copper, as indicated in Table 1, below, or the addition of 2 mM Ca^2+ (not shown) had a significant effect on the activity”. The “Concentration required to achieve the same level of inhibition of oxidation” value in assay [7] (surfactant lipids, level reached by 500 μg/ml rat serum) is given as “about 5.0 μg/ml”. Also, the “Inhibition of AIBN-initiated LPO” value in assay [8] is “did not inhibit LPO, unless copper was added at low concentrations”.

B1: SP-D: Native surfactant protein D from rat alveolar wash; mouse SP-D was used interchangeably with rat SP-D (protein)
chain: AEMKSLSQRSVPNTCTLVMCSPTENGLPGRDGRDGREGPRGEKGDPGLPGPMGLSGLQGPTGPVGPKGENGSAGEPGPKGERGLSGPPGLPGIPGPAGKEGPSGKQGNIGPQGKPGPKGEAGPKGEVGAPGMQGSTGAKGSTGPKGERGAPGVQGAPGNAGAAGPAGPAGPQGAPGSRGPPGLKGDRGVPGDRGIKGESGLPDSAALRQQMEALKGKLQRLEVAFSHYQKAALFPDGRSVGDKIFRTADSEKPFEDAQEMCKQAGGQLASPRSATENAAIQQLITAHNKAAFLSMTDVGTEGKFTYPTGEPLVYSNWAPGEPNNNGGAENCVEIFTNGQWNDKACGEQRLVICEF
Regarding B1, the “Time dependent increase in light scattering” value in assay [1] (100 μg/ml) was “inhibited”. Further, in assay [1], the “Blocking of attenuation of light scattering by J5 LPS vesicles” value is “partially”. For the same molecule, in assay [2], the “Growth inhibition of ΔOmpA bacteria with plasmid driven OmpA expression” value was “attenuated growth inhibition”, the “Growth inhibition of ΔOmpA organism with empty vector control” value is “inhibited to the same extent as the ΔOmpA organism”, the “Growth inhibition of OmpA deficient (ΔOmpA) E. coli” value is given as “growth inhibition was increased” and the “Growth of parental E. coli strain (E69)” value is recorded as “inhibited the growth”. In assay [3], the “Effect of addition during the propagation phase of oxidation” value was “arrested lipid oxidation almost immediately; also recorded: conjugated diene formation was completely arrested at the point of addition”, the “Effect on accumulation of conjugated dienes when included at zero time” value is “blocked the accumulation of conjugated dienes in a dose-dependent manner” and the “Concentration of complete inhibition of oxidation (conjugated diene formation)” value worked out at 0.5 µg/mL. In addition, the “Growth of GBS” value in assay [4] was “not GBS”. Also, in assay [5], the “Growth of E. coli K12” value is listed as “inhibited the growth”. For the same molecule, in assay [6], the “LDL oxidation in carbonyl Western analysis” value is given as “blocked LDL oxidation without the appearance of carbonyl-modified species”. For the same molecule, in assay [7], the “I.C.50 (half maximal concentration) for inhibition of copper-induced oxidation of surfactant lipids” value turned out to be 0.11 µg/mL, the “Concentration of complete inhibition / maximal protection of surfactant lipids” value is ≥ 0.5 µg/mL, the “Lipid peroxidation (LPO) produced by copper or iron” value is “block lipid peroxidation” and the IC50 amounted to 0.2 nM. For the same molecule, the “TBARS Surfactant lipids Malondialdehyde” value in assay [7] (Lipid + Cu2+ + 1 μg/ml protein) turned out to be 0.27 ± 0.07 µM. Also, in assay [7] (surfactant lipids oxidation), the “I.C.50 fold lower than ApoAIV” value is given as ~100 fold and the “I.C.50 fold lower than SP-A” value is reported as “approximately 35 fold”. In addition, in assay [7] (setting [9]), the “Effect of alkylation with iodoacetamide on the antioxidant effects” value was “completely blocked the antioxidant effects”. In assay [8], the “Inhibition of AIBN-initiated LPO” value is “did not inhibit LPO, unless copper was added at low concentrations”.

(Values after patent US7273847B2, “Peptides with antioxidant and antimicrobial properties” (priority 2000, dated 2007).)
